Patent US20210009668A1 (ROCHE DIAGNOSTICS OPERATIONS, published 2021)

Molecular target: T1, recombinant human cardiac troponin T (human, UniProt P45379 2-298)
T1 construct: In the ECL assay the cTnT came from the Troponin T hs CalSet calibrator; also called cTnT; TnT
Assay: SPR (Biacore T200, 37 C), Fab captured, cTnT analyte
Description: (§1) Detailed kinetic investigations were performed at 37° C. on a GE Healthcare T200 instrument. A Biacore CM-5 series S sensor was mounted into the instrument and was preconditioned according to the manufacturer's instructions. The system buffer was HBS-ET (10 mM HEPES (pH 7.4), 150 mM NaCl, 1 mM EDTA, 0.05% (w/v) Tween® 20). The sample buffer was the system buffer supplemented with 1 mg/ml CMD (Carboxymethyldextran, Fluka). In one embodiment an anti-human antibody capture system was established on the CMS biosensor. GAHF(ab′)2, (goat anti human F(ab′)2) (Code Nr.: 109-005-097, lot #13.12.2005, Jackson Immuno Research) was immobilized according to the manufacturer's instructions using NHS/EDC chemistry. 30 μg/ml GAHF(ab′)2 in 10 mM sodium acetate buffer (pH 5.0) were preconcentrated to the flow cells 1, 2, 3 and 4 and were immobilized with 10.000 RU GAHF(ab′)2. The sensor was subsequently saturated with 1 M ethanolamine pH 8.5.
Chimeric anti-TnT antibody fragments were periplasmatically expressed in E. coli cells as described and were lyzed by methods known (for technical details see: Andersen, D. C. & Reilly, D. E. (2004); Production technologies for monoclonal antibodies and their fragments. Curr Opin Biotechnol 15, 456-62). The lysates were diluted 1:20 in sample buffer. Fab fragments were captured via their humanized framework regions from the expression lysates on the biosensor at a flow rate of 10 μl/min for 1 min followed by a 2 min washing step with 10-fold concentrated HBS-EP buffer at 30 μl/min. The Fab fragment capture level (CL) in response units (RU) was monitored. Recombinant human TnT (Roche, 37 kDa) was diluted in sample buffer at 90 nM and a concentration series was produced with […], 30 nM, 11 nM, 3.3 nM, 1.1 nM, 0 nM, 3.3 nM TnT concentration. The analyte concentration series were 80 μl/min for 3 min association phase and the dissociation phase was monitored for 3 min.
The kinetic parameters ka [1/Ms], kd [1/s], t1/2 diss [min], KD [M] and the binding stoichiometry (Molar Ratio) (for details see: Schraeml, M. & Biehl, M. (2012); Kinetic screening in the antibody development process. Methods Mol Biol 901, 171-81.) of the cTnT analyte were determined for each Fab fragment mutant with the Biaevaluation Software (GE healthcare) according to the manufacturer's instructions.

Binder | Kd [nM] | MR (Molar Ratio) | koff [s⁻¹] | kon [M⁻¹ s⁻¹] | t/2-diss [min]
anti-cTnT Fab mutant 18 (V101Y) (Fab, V domains shown, it was tied to mutant 18 by the printed mutation V101Y; also called combination 18) VH: EVQLQQSGPELVKPGASVKMSCKASGYTFTDYYMKWVKQSHGKSLEWIGDINPNNGETFYNQKFKDKATLTVDKSSSTAYMQLNSLTSEDSAVYYCATRYFDYWGQGTTLTVSS VL: DIVLTQSPASLAVSLGQRATISCKASQSVDYDGTSYMNWFQQKAGQPPKRLIYAASNLESGIPARFSGRGSGTDFALNIHPVEEEDAATYYCQQSNEDPYTFGGGTKLEIK | 1.6 | 0.5 | 0.0047 | 2.9e+06 | 2
anti-cTnT Fab mutant 19 (Y104F) (Fab, V domains shown, also called combination 19) VH: EVQLQQSGPELVKPGASVKMSCKASGYTFTDYYMKWVKQSHGKSLEWIGDINPNNGETFYNQKFKDKATLTVDKSSSTAYMQLNSLTSEDSAVYYCATRVFDFWGQGTTLTVSS VL: DIVLTQSPASLAVSLGQRATISCKASQSVDYDGTSYMNWFQQKAGQPPKRLIYAASNLESGIPARFSGRGSGTDFALNIHPVEEEDAATYYCQQSNEDPYTFGGGTKLEIK | 0.46 | 0.8 | 0.0014 | 2.9e+06 | 8
anti-cTnT Fab mutant 21 (F60W, V101Y) (Fab, V domains shown, also called combination 21) VH: EVQLQQSGPELVKPGASVKMSCKASGYTFTDYYMKWVKQSHGKSLEWIGDINPNNGETWYNQKFKDKATLTVDKSSSTAYMQLNSLTSEDSAVYYCATRYFDYWGQGTTLTVSS VL: DIVLTQSPASLAVSLGQRATISCKASQSVDYDGTSYMNWFQQKAGQPPKRLIYAASNLESGIPARFSGRGSGTDFALNIHPVEEEDAATYYCQQSNEDPYTFGGGTKLEIK | 1.6 | 0.5 | 0.0043 | 2.7e+06 | 
anti-cTnT Fab mutant 20 (V101Y + Y104F) (Fab, V domains shown, also called combination 20) VH: EVQLQQSGPELVKPGASVKMSCKASGYTFTDYYMKWVKQSHGKSLEWIGDINPNNGETFYNQKFKDKATLTVDKSSSTAYMQLNSLTSEDSAVYYCATRYFDFWGQGTTLTVSS VL: DIVLTQSPASLAVSLGQRATISCKASQSVDYDGTSYMNWFQQKAGQPPKRLIYAASNLESGIPARFSGRGSGTDFALNIHPVEEEDAATYYCQQSNEDPYTFGGGTKLEIK | 1.1 | 0.6 | 0.0034 | 3.1e+06 | 3

Second part, the binder after the results:

Kd [nM] | MR (Molar Ratio) | koff [s⁻¹] | kon [M⁻¹ s⁻¹] | t/2-diss [min] | Binder
 | 0.7 | 0.0011 | 3e+06 | 10 | anti-cTnT Fab mutant 22 (F60W, Y104F) (Fab, V domains shown, also called combination 22) VH: EVQLQQSGPELVKPGASVKMSCKASGYTFTDYYMKWVKQSHGKSLEWIGDINPNNGETWYNQKFKDKATLTVDKSSSTAYMQLNSLTSEDSAVYYCATRVFDFWGQGTTLTVSS VL: DIVLTQSPASLAVSLGQRATISCKASQSVDYDGTSYMNWFQQKAGQPPKRLIYAASNLESGIPARFSGRGSGTDFALNIHPVEEEDAATYYCQQSNEDPYTFGGGTKLEIK
1.2 | 0.6 | 0.0034 | 2.8e+06 | 3 | anti-cTnT Fab mutant 23 (F60W, V101Y + Y104F) (Fab, V domains shown, it was tied to mutant 23 by the printed mutations; also called combination 23) VH: EVQLQQSGPELVKPGASVKMSCKASGYTFTDYYMKWVKQSHGKSLEWIGDINPNNGETWYNQKFKDKATLTVDKSSSTAYMQLNSLTSEDSAVYYCATRYFDFWGQGTTLTVSS VL: DIVLTQSPASLAVSLGQRATISCKASQSVDYDGTSYMNWFQQKAGQPPKRLIYAASNLESGIPARFSGRGSGTDFALNIHPVEEEDAATYYCQQSNEDPYTFGGGTKLEIK

Molecular target: T1, recombinant human cardiac troponin T
Assay: SPR (Biacore T200, 37 C), Fab captured, cTnT analyte; Fab fragment
Description: as §1, with “The sensor was subsequently saturated with 1 M ethanolamine pH 8.5.” left out
Chimeric anti-TnT antibody fragments were periplasmatically expressed in E. coli cells as described and were lyzed by methods known (for technical details see: Andersen, D. C. & Reilly, D. E. (2004); Production technologies for monoclonal antibodies and their fragments. Curr Opin Biotechnol 15, 456-62). […] The Fab fragment capture level (CL) in response units (RU) was monitored. […] The analyte concentration series were 80 μl/min for 3 min association phase and the dissociation phase was monitored for 3 min. […]

Kd [nM] | Binder
0.38 | anti-cTnT Fab mutant 22 (F60W, Y104F) (Fab, V domains shown, also called combination 22) VH: EVQLQQSGPELVKPGASVKMSCKASGYTFTDYYMKWVKQSHGKSLEWIGDINPNNGETWYNQKFKDKATLTVDKSSSTAYMQLNSLTSEDSAVYYCATRVFDFWGQGTTLTVSS VL: DIVLTQSPASLAVSLGQRATISCKASQSVDYDGTSYMNWFQQKAGQPPKRLIYAASNLESGIPARFSGRGSGTDFALNIHPVEEEDAATYYCQQSNEDPYTFGGGTKLEIK
